According to article PMC6795518:

Tests used:
[1] = biological target: TcdB2-TccC3 from Photorhabdus luminescens (Pl-TcdB2-TccC3) (Photorhabdus luminescens) (UniProt Q8GF99); experiment: BLI
[2] = biological target: XptA1 from Xenorhabdus nematophila (Xn-XptA1) (Xenorhabdus nematophila); experiment: cryo-EM structure

Substance | Kd [1] | stoichiometry N [2]
TcdA1 from Photorhabdus luminescens (Pl-TcdA1), Q9RN43 1-2516 | 0.63 nM | –
TcdA4 from Morganella morganii (Mm-TcdA4) (natural protein) | 11.3 nM | –
XptA1 from Xenorhabdus nematophila (Xn-XptA1) (natural protein) | 1.99 nM | 5
